Laboratory results taken from publication PMC10830566 (2024).

How the values were obtained:
[1] = molecular target: T1, endothelial protein C receptor (EPCR), extracellular region, with a C-terminal 12xHis tag (human, UniProt Q9UNN8 18-210); assay: BLI
T1 chain: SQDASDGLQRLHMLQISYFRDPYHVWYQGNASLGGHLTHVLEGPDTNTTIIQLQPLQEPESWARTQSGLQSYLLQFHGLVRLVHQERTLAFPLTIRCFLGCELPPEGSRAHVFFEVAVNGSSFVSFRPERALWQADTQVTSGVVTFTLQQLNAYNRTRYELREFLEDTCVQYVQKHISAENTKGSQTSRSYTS

[2] = molecular target: T1, endothelial protein C receptor (EPCR), …; assay: BLI

koff [1]: 0.0021 s⁻¹
Kd [2]: 67 nM
B1: activated protein C (APC) (enzyme)
chain 1: ANSFLEELRHSSLERECIEEICDFEEAKEIFQNVDDTLAFWSKHVDGDQCLVLPLEHPCASLCCGHGTCIDGIGSFSCDCRSGWEGRFCQREVSFLNCSLDNGGCTHYCLEEVGWRRCSCAPGYKLGDDLLQCHPAVKFPCGRPWKRMEKKRSHL
chain 2: LIDGKMTRRGDSPWQVVLLDSKKKLACGAVLIHPSWVLTAAHCMDESKKLLVRLGEYDLRRWEKWELDLDIKEVFVHPNYSKSTTDNDIALLHLAQPATLSQTIVPICLPDSGLAERELNQAGQETLVTGWGYHSSREKEAKRNRTFVLNFIKIPVVPHNECSEVMSNMVSENMLCAGILGDRQDACEGDSGGPMVASFHGTWFLVGLVSWGEGCGLLHNYGVYTKVSRYLDWIHGHIRDKEAPQKSWAP
modifications: gamma-carboxyglutamate in the Gla domain of the light chain (incl. Gla7 = precursor 49); light and heavy chains disulfide-linked; activation peptide 200-211 and Lys-Arg 198-199 removed …; chain limits taken from the UniProt features
